Data as given in patent US20170137467A1 (CHROMOTEK, published 2017).
Residue numbers refer to the chain shown, from its start. Values belong to the binder of their own block, whether it stands above or below them.

How the values were obtained:
BC2T P1F = target: T1, BC2T P1F (human); test: library pulldown, LC-MS of supernatant; ratio vs GFP-Nb control (0=captured, 1=not captured)
T1 construct: position 1 library, row F
T1 peptide: Ac-FDRKAAVSHWQQ-NH2
In short: (§1)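 Unbound peptide left in supernatant after 1 h pulldown in PBS/0.01% CHAPS measured by reversed-phase LC-MS (8–30% eluent B gradient, 20 min).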

BC2T A6H = target: T2, BC2T A6H (human); test: as above
T2 construct: position 6 library (BC2TA6X), row H
T2 peptide: Ac-PDRKAHVSHWQQ-NH2
In short: as §1

BC2T A6D = target: T3, BC2T A6D (human); test: as above
T3 construct: position 6 library (BC2TA6X), row D
T3 peptide: Ac-PDRKADVSHWQQ-NH2
In short: as §1

BC2T V7F = target: T4, BC2T V7F (human); test: as above
T4 construct: position 7 library, row F
T4 peptide: Ac-PDRKAAFSHWQQ-NH2
In short: as §1

BC2T V7D = target: T5, BC2T V7D (human); test: as above
T5 construct: position 7 library, row D
T5 peptide: Ac-PDRKAADSHWQQ-NH2
In short: as §1

BC2T P1N = target: T6, BC2T P1N (human); test: as above
T6 construct: position 1 library, row N
T6 peptide: Ac-NDRKAAVSHWQQ-NH2
In short: as §1

BC2T D2P = target: T7, BC2T D2P (human); test: as above
T7 construct: position 2 library, row P
T7 peptide: Ac-PPRKAAVSHWQQ-NH2
In short: as §1

BC2T D2F = target: T8, BC2T D2F (human); test: as above
T8 construct: position 2 library, row F
T8 peptide: Ac-PFRKAAVSHWQQ-NH2
In short: as §1

BC2T D2W = target: T9, BC2T D2W (human); test: as above
T9 construct: position 2 library, row W
T9 peptide: Ac-PWRKAAVSHWQQ-NH2
In short: as §1

BC2T D2H = target: T10, BC2T D2H (human); test: as above
T10 construct: position 2 library, row H
T10 peptide: Ac-PHRKAAVSHWQQ-NH2
In short: as §1

BC2T R3P = target: T11, BC2T R3P (human); test: as above
T11 construct: position 3 library (BC2TR3X), row P
T11 peptide: Ac-PDPKAAVSHWQQ-NH2
In short: as §1

BC2T R3W = target: T12, BC2T R3W (human); test: as above
T12 construct: position 3 library (BC2TR3X), row W
T12 peptide: Ac-PDWKAAVSHWQQ-NH2
In short: as §1

BC2T R3Q = target: T13, BC2T R3Q (human); test: as above
T13 construct: position 3 library (BC2TR3X), row Q
T13 peptide: Ac-PDQKAAVSHWQQ-NH2
In short: as §1

BC2T R3D = target: T14, BC2T R3D (human); test: as above
T14 construct: position 3 library (BC2TR3X), row D
T14 peptide: Ac-PDDKAAVSHWQQ-NH2
In short: as §1

BC2T K4P = target: T15, BC2T K4P (human); test: as above
T15 construct: position 4 library, row P
T15 peptide: Ac-PDRPAAVSHWQQ-NH2
In short: as §1

BC2T K4Q = target: T16, BC2T K4Q (human); test: as above
T16 construct: position 4 library, row Q
T16 peptide: Ac-PDRQAAVSHWQQ-NH2
In short: as §1

BC2T K4Y = target: T17, BC2T K4Y (human); test: as above
T17 construct: position 4 library, row Y
T17 peptide: Ac-PDRYAAVSHWQQ-NH2
In short: as §1

BC2T K4C(Abu) = target: T18, BC2T K4C(Abu) (human, not fully specified (residue 4)); test: as above
T18 construct: position 4 library, row C(Abu) / C*
T18 peptide: Ac-PDRCAAVSHWQQ-NH2
In short: as §1

BC2T K4H = target: T19, BC2T K4H (human); test: as above
T19 construct: position 4 library, row H
T19 peptide: Ac-PDRHAAVSHWQQ-NH2
In short: as §1

BC2T A5F = target: T20, BC2T A5F (human); test: as above
T20 construct: position 5 library, row F
T20 peptide: Ac-PDRKFAVSHWQQ-NH2
In short: as §1

BC2T A5W = target: T21, BC2T A5W (human); test: as above
T21 construct: position 5 library, row W
T21 peptide: Ac-PDRKWAVSHWQQ-NH2
In short: as §1

BC2T H9V = target: T22, BC2T H9V; test: positional peptide library pulldown on immobilised Nb, LC-MS of supernatant; signal ratio to control GFP-Nb (1 = not captured, near 0 = captured)
T22 construct: positional scanning library member
T22 peptide: Ac-PDRKAAVSVWQQ-NH2
Text: In total, 12 different BC2T libraries displaying all 20 proteinogenic amino acids in one single position of the peptide were used in immunoprecipitation experiments. […] The direct comparison with the GFP-Nb made it possible to determine the quantitative degree of peptide capture without the need of labeled standards. […] The more peptide was captured the more the value approximates 0. It was not possible to discriminate between isoleucine (I) and leucine (L) peptide versions since these peptides are isobaric.
To investigate the binding specificity of the BC2T and derived mutants peptide libraries for each amino acid position of the sequence […] (SEQ ID NO:4) were synthesized with acetyl and amide groups located at the N-termini or C-termini respectively (Intavis). […] Incubations were performed in 300 μl PBS/0.01% CHAPS for 1 h on a HulaMixer (Life Technologies). Subsequent to a centrifugation step 10 μl supernatant were analyzed in a LC-MS procedure. Peptides were separated using an UltiMate3000 RSLCnano System (Thermo Scientific), composed of a C18 PepMap100μ-Precolumn (300 μm×5 mm; particle size: 5 μm; pore size: 100 Å—Thermo Scientific) and a C18 analytical column (Acclaim Rapid Separation LC (RSLC) Column: 150 mm×5 mm; particle size: 2.2 μm; pore size: 100 Å—Thermo Scientific). A step gradient was applied starting at 8% and ending after 20 min at 30% eluent B (80% acetonitrile, 20% H₂O, 0.1% formic acid).

- ratio (BC2T P1F): 0.2
- ratio (BC2T A6H): 1.1
- ratio (BC2T A6D): 1
- ratio (BC2T V7F): 0.2
- ratio (BC2T V7D): 0.5
- ratio (BC2T P1N): 0.6
- ratio (BC2T D2P): 0.6
- ratio (BC2T D2F): 0.2
- ratio (BC2T D2W): 0.2
- ratio (BC2T D2H): 0.1
- ratio (BC2T R3P): 0.8
- ratio (BC2T R3W): 0.8
- ratio (BC2T R3Q): 0.5
- ratio (BC2T R3D): 1
- ratio (BC2T K4P): 1
- ratio (BC2T K4Q): 0.1
- ratio (BC2T K4Y): 0.2
- ratio (BC2T K4C(Abu)): 0.1
- ratio (BC2T K4H): 0.1
- ratio (BC2T A5F): 0.1
- ratio (BC2T A5W): 0
B1: BC2 nanobody (BC2-Nb) (VHH)
VHH: QVQLVESGGGLVQPGGSLTLSCTASGFTLDHYDIGWFRQAPGKEREGVSCINNSDDDTYYADSVKGRFTIFMDNAKDTVYLQMNSLKPEDTAIYYCAEARGCKRGRYEYDFWGQGTQVTVSS
notes: immobilised on agarose/sepharose beads in this assay; also called BC2 nanotrap (immobilised form); not shown: C-terminal 6xHis-tag added by pHEN6 vector

B2: BC2 nanobody (VHH)
VHH: B1 VHH
notes: immobilised on beads in this assay; also called BC2-Nb; BC2 nanotrap (immobilised)
- ratio (BC2T H9V): 0.2

- ratio (BC2T P1F): 0.3
- ratio (BC2T A6H): 0.9
- ratio (BC2T A6D): 1
- ratio (BC2T V7F): 0.4
- ratio (BC2T V7D): 0.9
- ratio (BC2T P1N): 0.7
- ratio (BC2T D2P): 0.8
- ratio (BC2T D2F): 0.3
- ratio (BC2T D2W): 0.3
- ratio (BC2T D2H): 0.2
- ratio (BC2T R3P): 1
- ratio (BC2T R3W): 1
- ratio (BC2T R3Q): 0.9
- ratio (BC2T R3D): 1
- ratio (BC2T K4P): 1
- ratio (BC2T K4Q): 0.4
- ratio (BC2T K4Y): 0.5
- ratio (BC2T K4C(Abu)): 0.3
- ratio (BC2T K4H): 0.3
- ratio (BC2T A5F): 0.2
- ratio (BC2T A5W): 0.1
B3: BC2-NbR106S (VHH)
VHH: B1 VHH with R106S
notes: immobilised on beads in this assay; not shown: C-terminal 6xHis-tag added by pHEN6 vector

- ratio (BC2T H9V): 0.6
B4: BC2-NbR106S (VHH)
VHH: B1 VHH with R106S
notes: headlock mutant of BC2-Nb; immobilised on beads in this assay
